Source: US20080176263

How the values were obtained:
[1] = test system: TNO211 peptide (DABCYL-GABA-Pro-Gln-Gly-Leu-Glu(EDANS)-Ala-Lys-NH2)
[2] = test system: Anaspec, Inc.'s FRET peptide XV (QXL520-y-Abu-Pro-Gln-Gly-Leu-Dab(5-FAM)-Ala-Lys-NH)
[3] = test system: T1, Peptide #15 (Biotin-aAbu-Pro-Gln-Gly-Leu-Lys(5FAM)-Ala-Lys-NH2)
T1 sequence: PQGLKAK

Chain of MMP-9 (chain, as listed by the source): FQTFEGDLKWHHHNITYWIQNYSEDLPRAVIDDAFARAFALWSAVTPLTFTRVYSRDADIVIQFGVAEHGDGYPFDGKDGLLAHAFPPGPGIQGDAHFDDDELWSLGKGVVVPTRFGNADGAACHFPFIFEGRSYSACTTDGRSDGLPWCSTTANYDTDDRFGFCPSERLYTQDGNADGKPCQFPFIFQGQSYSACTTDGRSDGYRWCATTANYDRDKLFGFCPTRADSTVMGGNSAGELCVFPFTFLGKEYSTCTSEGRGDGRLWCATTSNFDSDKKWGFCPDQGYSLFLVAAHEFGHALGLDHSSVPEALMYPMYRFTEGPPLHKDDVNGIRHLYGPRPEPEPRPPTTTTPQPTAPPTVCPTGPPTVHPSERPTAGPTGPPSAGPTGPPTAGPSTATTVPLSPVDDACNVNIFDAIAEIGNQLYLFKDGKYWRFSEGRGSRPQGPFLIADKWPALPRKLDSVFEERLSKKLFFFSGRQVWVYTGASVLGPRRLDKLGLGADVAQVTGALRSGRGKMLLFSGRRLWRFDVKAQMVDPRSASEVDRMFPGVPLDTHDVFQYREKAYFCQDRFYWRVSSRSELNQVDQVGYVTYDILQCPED
Chain of Recombinant active pure MMP-9 from Calbiochem (Cat# PF024; 83 kDa form) (chain, as listed by the source): as above

trypsin was tested, and the “cleavage of the dye-labelled immobilized substrate (color generation)” value (from here on “cleavage … (color generation)”) (RH substrate) was “none of the enzyme preparations were successful in cleaving the RH substrate”.

With dispase the “cleavage … (color generation)” value (RH substrate) was “none of the enzyme preparations were successful in cleaving the RH substrate”.

elastase was tested, and the “cleavage … (color generation)” value (RH substrate) was “none of the enzyme preparations were successful in cleaving the RH substrate”.

With MMP-9 the “protease activity (fluorescence from cleavage of substrate TNO211), relative to pronase” value [1] was 28±3% and the “substrate specificity in the fluorogenic cleavage assay” value [1] was “The substrate exhibited greater specificity for MMP-9 within the initial 30 minutes of the assay”.

“Recombinant active pure MMP-9 from Calbiochem (Cat# PF024; 83 kDa form)” was tested, and the “time to a visible fluorescent signal from cleavage of the FRET peptide” value [2] was “capable of generating a signal within 10 minutes for pure MMP-9 activity” and the “visually detectable fluorescent signal in MMP-9 spiked fetal bovine serum” value [2] was “the spiked FBS generated as slightly detectable signal by 10 min with the 5-FAM-based peptide and an easily detectable signal by 30 min”.

In the case of pronase, the “fluorescence left after streptavidin agarose removal of uncleaved biotinylated peptide” value [3] is reported as “there was enough of a difference between the negative control and the other samples to stop at this point”, the “time to completion of the cleavage reaction at 1 ug/ml protease” value [1] is reported as “the pronase reaction reached completion within 13 minutes” and the “visual detection limit of protease by fluorescence of cleaved substrate” value [1] is reported as 125 ng pronase was detected within 10 minutes. The “visible color from cleavage of the dye-labelled immobilized substrate” value (Substrate AA) was “AA substrate reacted with pronase and proteinase K did produce a visible color within 2.5 h at 37 °C Pronase generated the most noticeable color change” and the “cleavage … (color generation)” value (RH substrate) was “none of the enzyme preparations were successful in cleaving the RH substrate”.

In the case of clostridial collagenase, the “protease activity (fluorescence from cleavage of substrate TNO211), relative to pronase” value [1] is reported as 2±1%.
